The assay addresses T1, type IF CRISPR RNA guided surveillance complex (Csy) (UniProt Q02MM2 1-187).
T1 construct: Cas8f subunit (tail) of the type IF Csy complex; Csy1); Cas5 subunit (tail) of the type IF Csy complex; Csy2); Cas7 subunit (backbone, six copies Cas7.1f-Cas7.6f) of the type IF Csy complex; Csy3); Cas6f subunit (head) of the type IF Csy complex; Csy4); Ribonucleoprotein: also holds one crRNA (synthetic CRISPR, Addgene 89244); Purified on Ni-NTA, so one subunit carries a His tag; also called Csy …
The experiment in a line: ITC; AcrIF9 or AcrIF2 binding to the Csy complex; conditions not told in the text shown (Supplemental Figure S8). To be noted: both partners purified.

B1: AcrIF9 (natural protein)
chain: MKAAYIIKEVQNINSEREGTQIEATSLSQAKRIASKEQCFHGTVMRIETVNGLWLAYKEDGKRWVDCQ
For the molecule B1, the dH is greater than 0.

For the origin of these results see publication PMC9638894, “Anti-CRISPR proteins function through thermodynamic tuning and allosteric regulation of CRISPR RNA-guided surveillance complex” (Nucleic Acids Research, 2022).
